{"source": "patent US6818221B2", "about": "“Adjuvants and processes to induce a specific type of immune response” (Baylor Research Institute, priority 2000, dated 2004)", "molecules": {"B1": {"name": "OVA: Chicken OVALBUMIN (Sigma) in PBS, depleted of the endotoxin activity; model soluble protein antigen (protein, UniProt P01012 2-386, looked up)", "Ovalbumin": "GSIGAASMEFCFDVFKELKVHHANENIFYCPIAIMSALAMVYLGAKDSTRTQINKVVRFDKLPGFGDSIEAQCGTSVNVHSSLRDILNQITKPNDVYSFSLASRLYAEERYPILPEYLQCVKELYRGGLEPINFQTAADQARELINSWVESQTNGIIRNVLQPSSVDSQTAMVLVNAIVFKGLWEKAFKDEDTQAMPFRVTEQESKPVQMMYQIGLFRVASMASEKMKILELPFASGTMSMLVLLPDEVSGLEQLESIINFEKLTEWTSSNVMEERKIKVYLPRMKMEEKYNLTSVLMAMGITDVFSSSANLSGISSAESLKISQAVHAAHAEINEAGREVVGSAEAGVDAASVSEEFRADHPFLFCIKHIATNAVLFFGRCVSP"}}, "key": {"[1]": {"test_system": "OVA-specific CD4+ T cells", "assay": "Cytokine production by antigen-specific T-helper cells in restimulated cultures (ELISA)", "format": "in vivo, mice", "conditions": "CD4+ OT-2 system; culture supernatants after 72 hours OVA restimulation", "experimental": "(§1) Four days after injecting with OVA or OVA+LPS, 2.5×10^5 popliteal lymph node cells (footpad injections) or splenocytes (intraperitoneal injections) were plated in triplicate in 96-well flat bottomed plates (Costar, Cambridge, Mass.) in 200 μl of RPMI complete medium (GIBCO BRL, Grand Island, N.Y., US) supplemented with 5% fetal bovine serum (FBS), together with different concentrations (0-500 μg/mL of OVA, or OVA peptide (SIINFEKL, SEQ ID NO:1) (New England Peptide Incorporated, Fitchburg, Mass.). Proliferative responses were assessed after 72 hours of culture in a humidified atmosphere of 5% CO2 in air. Cultures were pulsed with 1.0 μCi [^3H] thymidine for 12 hours, and incorporation of the radionucleotide was measured by β-scintillation spectroscopy (Pulendran, B., et al. 1999. “Distinct dendritic cell subsets differentially regulate the class of immune response in vivo,” Proc Natl Acad Sci USA 96:1036-1041). For cytokine assays, aliquots of culture supernatants were removed after 72 hours, pooled, and assayed for the presence of IFNγ, IL-2, IL-4, IL-5, IL-10, and IL-13 by ELISA.\n(§2) IFNγ, IL-2, IL-10, IL-4, IL-5, IL-6, IL-12, IL-13 and TNFα were quantified by ELISA kits from Pharmingen (San Diego, Calif.) using manufacturer's instructions dated 2000.\nCytokine production by antigen-specific T cells was measured by assaying the culture supernatants from the single cell suspensions of the draining lymph nodes described above for IL-2, IFNγ, IL-4, IL-10 and IL-5."}, "[2]": {"test_system": "OVA-specific CD8+ T cells", "assay": "Cytokines produced in CD8+ T-cell cultures (ELISA)", "format": "in vivo, mice", "conditions": "CD8+ OT-1 cells", "experimental": "as §1, §2\nWe next examined the cytokines produced in CD8+ T-cell cultures by ELISA."}, "[3]": {"test_system": "OVA-specific CD4+ T cells", "assay": "IL-13 production by antigen-specific T cells in restimulated cultures (ELISA)", "format": "in vivo, B6.PL.THY1a (B6.PL) mice", "conditions": "route not distinguished (intraperitoneally or subcutaneously)", "experimental": "B6.PL.THY1^a (B6.PL) mice reconstituted with OT-2 transgenic T cells were immunized with soluble OVA, E. coli LPS alone, P. gingivalis LPS alone, OVA+E. coli LPS, or OVA+P. gingivalis LPS, either subcutaneously in the footpad or intraperitoneally. Four days later, the draining popliteal lymph nodes (subcutaneous route), or spleens (intraperitoneal route) were removed, and single cell suspensions were restimulated with varying concentrations of OVA (0-500 μg/mL) for 72 hours, and pulsed with [^3H] for 12 hours. The cell populations were then assayed for IL-13 with ELISA. The data presented in FIG. 10 are representative of two independent experiments.\nFour days after injecting with OVA or OVA+LPS, 2.5×10^5 popliteal lymph node cells (footpad injections) or splenocytes (intraperitoneal injections) were plated in triplicate in 96-well flat bottomed plates (Costar, Cambridge, Mass.) in 200 μl of RPMI complete medium (GIBCO BRL, Grand Island, N.Y., US) supplemented with 5% fetal bovine serum (FBS), together with different concentrations (0-500 μg/mL of OVA, or OVA peptide (SIINFEKL, SEQ ID NO:1) (New England Peptide Incorporated, Fitchburg, Mass.). Proliferative responses were assessed after 72 hours of culture in a humidified atmosphere of 5% CO2 in air. […]"}, "[4]": {"test_system": "OVA-specific CD4+ T cells", "assay": "Clonal expansion of OVA-specific CD4+ T cells in vivo (OT-2 adoptive transfer, flow cytometry)", "design": "species or system mice", "conditions": "OVA with or without LPS adjuvant; footpad or intraperitoneal; Day 4", "source_text": "OT-2 TCR transgenic mice (strain 426-6), generated by Dr. W. Heath (Walter & Eliza Hall Institute, Melbourne, Australia) and Dr. F. Carbone (Monash University, Melbourne, Australia) were obtained from Dr. J. Kapp (Emory University, Atlanta). OT-1 TCR transgenic mice were purchased from Jackson Laboratory (Bar Harbor, Me.). C57BL/6 mice, B6.PL.THY1^a (B6.PL) mice, and C3H/HeJ mice were purchased from Jackson Laboratory (Bar Harbor, Me.). C3H/HeN mice were purchased from Harlan Sprague Dawley (Indianapolis, Ind.). All mice were kept in microisolator cages in a specific-pathogen free facility. For adoptive transfers, age matched, male C57BL/6 or B6.PL.THY1^a recipients were given 2.5×10^6 of either OT-2 cells or OT-1 TCR transgenic T cells intravenously.\nReconstituted mice (3-5 per group) were injected either intraperitoneally, or in the footpad, with either 2 mg OVA in saline, 2 mg OVA+25 μg E. coli LPS, or 2 mg OVA+25 μg P. gingivalis LPS. Endotoxin activity in saline was measured by LAL QCL-1000 kit, and observed to be below the detection limit. […]\nThe reconstituted mice were injected with one of the following compositions: soluble endotoxin-free OVA, E. coli LPS alone, P. gingivalis LPS alone, OVA+E. coli LPS, or OVA+P. gingivalis LPS. […] The CD4+ OVA-specific T cell response in either the draining lymph nodes or in the spleen was monitored by flow cytometry (FIG. 2A)."}}, "data": [{"molecule": "B1", "values": [{"measurement": "IFNγ production", "setting": "[1]", "value": "little, if any"}, {"measurement": "IL-2 production", "setting": "[1]", "value": "little, if any"}, {"measurement": "IL-4 production", "setting": "[1]", "value": "little, if any"}, {"measurement": "IL-5 production", "setting": "[1]", "value": "little, if any"}, {"measurement": "IL-10 production", "setting": "[1]", "value": "little, if any"}, {"measurement": "IFNγ production", "setting": "[2]", "value": "did not secrete significant levels"}, {"measurement": "IL-2 production", "setting": "[2]", "value": "did not secrete significant levels"}, {"measurement": "IL-5 production", "setting": "[2]", "value": "did not secrete significant levels"}, {"measurement": "IL-10 production", "setting": "[2]", "value": "did not secrete significant levels"}, {"measurement": "IL-13 production", "setting": "[3]", "value": "little, if any"}, {"measurement": "clonal expansion of OVA-specific CD4+ T cells", "setting": "[4]", "value": "significant clonal expansion"}]}]}
